Data on two substances can be found in doi:10.1101/2024.04.24.591037.

Assay [1] deals with Kluyveromyces marxianus GCN2 HRSL domain (residues 996-1511) (Kluyveromyces marxianus). Put plainly: SEC.
Assay [2] addresses ΔN-terminal GCN2 HRSL, mutant Δ(V996-N1009) of Kluyveromyces marxianus GCN2 HRSL (Kluyveromyces marxianus). Briefly: SEC.

The substance “Kluyveromyces marxianus GCN2 HRSL domain (residues 996-1511) (domain or fragment)” registered a stoichiometry N in assay [1] of 2.
“ΔN-terminal GCN2 HRSL, mutant Δ(V996-N1009) of Kluyveromyces marxianus GCN2 HRSL (domain or fragment)”: the stoichiometry N in assay [2] amounted to 2.
